From article PMC5093550

Key:
[1] = biological target: α-synuclein fibrils; assay: fluorescence spectroscopy of the fibrils formed; seeded fibrils formed with unlabelled monomeric α-synuclein and monomeric Alexa-568-β-synuclein, compared with fibrils formed with Alexa-568-α-synuclein; pH 6.5
[2] = biological target: α-synuclein fibrils; assay: microfluidic diffusional sizing; monomeric Alexa-568-β-synuclein incubated (15 min) with unlabelled α-synuclein fibrils at [α-synuclein fibrils]:[β-synuclein monomer] (M:M) of 5 and 40; conditions of the seeded kinetic experiments (pH 6.5); degree of binding estimated from the effective hydrodynamic radius

Alexa-568-β-synuclein, monomeric (from UniProt Q16143 1-134) (natural protein)
degree of incorporation into the fibrils [1]: < 3%
degree of binding at [α-synuclein fibrils]:[β-synuclein monomer] ratio 5 [2]: < 5%
degree of binding at [α-synuclein fibrils]:[β-synuclein monomer] ratio 40 [2]: 10%
